# Where “and” joins values, the source holds several entries; their conditions need not be identical. Identical values can stand only once.
# B1: DAP12, endogenous in macrophage-like differentiated THP-1 cells, O43914 22-113 (natural protein)
# chain: LRPVQAQAQSDCSCSTVSPGVLAGIVMGDLVLTVLIALAVYFLGRLVPRGRGAAEAATRKQRITETESPYQELQGQRSDVYSDLNTQRPYYK
# B2: DNAX-activating protein of 12 kDa (DAP12) wt, overexpressed in HEK293 cells, O43914 22-113 (natural protein)
# chain: B1 chain
# Assays:
# Conditions in all cases: remark: other sources report otherwise
# [1] = biological target: T1, DAP12, endogenous in macrophage-like differentiated THP-1 cells (human (endogenous in THP-1)), O43914; assay: non-reducing SDS-PAGE and western immunoblotting; membranes of differentiated THP-1 cells (wt and TREM2 ko; with or without MG132, lactacystin or chloroquine for 4 h); SDS sample buffer without DTT, 5 min 95 °C
# [2] = biological target: T1, DAP12, endogenous in macrophage-like …; assay: as above; remark: listed apart in the source
# [3] = biological target: T2, DNAX-activating protein of 12 kDa (DAP12) wt, overexpressed in HEK293 cells, O43914; assay: SDS-PAGE and western immunoblotting; HEK293 cells transiently expressing DAP12 wt or DAP12 D50A with or without TREM2 (blots of Fig. 5A); SDS resistant oligomers
# [4] = biological target: T2, DNAX-activating protein of 12 kDa …; assay: SDS-PAGE and western immunoblotting; membranes of HEK293 Flp-In cells stably overexpressing DAP12 alone or with TREM2 wt or TREM2 K186N; with or without proteasome inhibitors (Suppl. Figure S3)
binder,measurement,setting,value
B1,stoichiometry N,[1],3
same,stoichiometry N,[2],2
B2,stoichiometry N,[3],3 and 4
same,stoichiometry N,[4],2 and 3

# Source: paper PMC11335228
